The values below come from the DeepSol protein solubility set.

This data set is described as follows: soluble on expression in E. coli; label from the status in PepcDB or PDB records.
Turning to “MGGSHHHHHHRSESTVTEELKEGIDAVYPSLVGTADSKAEGIKNYFKLSFTLPEEQKSRTVGSEAPLKDVAQALSSRARYELFTEKETANPAFNGEVIKRYKELMEHGEGIADILRSRLAKFLNTKDVGKRFAQGTEANRWVGGKLLNIVEQDGDTFKYNEQLLQTAVLAGLQWRLTATSNTAIKDAKDVAAITGIDQALLPEGLVEQFDTGMTLTEAVSSLAQKIESYWGLSRNPNAPLGYTKGIPTAMAAEILAAFVESTDVVENIVDMSEIDPDNKKTIGLYTITELDSFDPINSFPTAIEEAVLVNPTEKMFFGDDIPPVANTQLRNPAVRNTPEQKAALKAEQATEFYVHTPMVQFYETLGKDRILELMGAGTLNKELLNDNHAKSLEGKNRSVEDSYNQLFSVIEQVRAQSEDISTVPIHYAYNMTRVGRMQMLGKYNPQSAKLVREAILPTKATLDLSNQNNEDFSAFQLGLAQALDIKVHTMTREVMSDELTKLLEGNLKPAIDMMVEFNTTGSLPENAVDVLNTALGDRKSFVALMALMEYSRYLVAEDKSAFVTPLYVEADGVTNGPINAMMLMTGGLFTPDWIRNIAKGGLFIGSPNKTMNEHRSTADNNDLYQASTNALMESLGKLRSNYASNMPIQSQIDSLLSLMDLFLPDINLGENGALELKRGIAKNPLTITIYGSGARGIAGKLVSSVTDAIYERMSDVLKARAKDPNISAAMAMFGKQAASEAHAEELLARFLKDMETLTSTVPVKRKGVLELQSTGTGAKGKINPKTYTIKGEQLKALQENMLHFFVEPLRNGITQTVGESLVYSTEQLQKATQIQSVVLEDMFKQRVQEKLAEKAKDPTWKKGDFLTQKELNDIQASLNNLAPMIETGSQTFYIAGSENAEVANQVLATNLDDRMRVPMSIYAPAQAGVAGIPFMTIGTGDGMMMQTLSTMKGAPKNTLKIFDGMNIGLNDITDASRKANEAVYTSWQGNPIKNVYESYAKFMKNVDFSKLSPEALEAIGKSALEYDQRENATVDDIANAASLIERNLRNIALGVDIRHKVLDKVNLSIDQMAAVGAPYQNNGKIDLSNMTPEQQADELNKLFREELEARKQKVAKA”, the “soluble on expression in E. coli” value is given as “soluble”.
As for “MMHKRDQDYWIFSAELRDAKVKDDQSSKPQIVTPLGISIKRILCTGTVTSKQGDDRMTRITVADPVGNFYVIGFSNGFNPEEKAMLDKVSVDDRIMVIGKISSYRNTEGNYLFSIRPELVSKIDDEAMKFWSLKAYYFAKRRYYAIREAQKSENPAAEILKESGYTMVEAEAAMNAINNFPNYDYQKLFELIEPAMSSIGSSGAIAEARSMILDYIKNNDLDGKGCRYEDIVVAAKNAGIDQSTVDEILNSLGSLGEIFEVSLKRYKFVDTP”, the entry is “not soluble”.
As for “MSLNKIKRITAYKIDLPLKEGSYNWSEGKSVSVFDSTVIAVETENGTIGYGECCPLGPFYLPSYAEGVRAGIKELGPHLIGLDATNLFYLNHIMDRSLKGHPYVKSPIDVACWDIKGKTAGLPVSNLLGGVYDEDFILYRAISQDQPEAMADKVKEYRDQGYRRFQLKVGGNADEDIKRIRSVAEKMETGDKLIADANTGWLTHEAVRVVNGVSDIDVYIEQPCLSYDECFAVRKKTNHPFILDESINNMRTLLKAYHDQAMDAVNIKISKFGGITKAALARDICSELGIAMTIEDTWGGDIVTAAIAHLAHTTDPKLLFTATDFNSYVTVDIASGAPKRENGRMKSSKDPGLGIKPLSEVLGDSVVDIEGHHHHHH”, the “soluble on expression in E. coli” value was “not soluble”.
As for “MSLQIEFREFNPFDCWIWVEFSTVPAPLEQQYLEELFDSWFFLGKLGGFNAENLQAQEEGLELSYMSYQSAQERSSLAALMHNMGEVEYQGRWARCWFDLGTSDAIALDVLLNALQRLSEEMVGLEQVFVGGENADWPSPGRRSLDFAADEGHHHHHH”, the entry is “soluble”.
“KALYSKPGSKNGRWNPETHKFCKCGVRIQTSAYTCSKCRNRSGENNSFFNHKHSDITKSKISEKMKGKKPSNIKKISCDGVIFDCAADAARHFKISSGLVTYRVKSDKWNWFYINA”: the “soluble on expression in E. coli” value was “soluble”.
Take “MSRRHSVVDAYSTVEGKIRDTMRELSALWDEVDMSEAMRLKRVDNAFTHITLLCDDMLSGEKEMIHNLKVSIREDMQNVKKMRLELEMEDFQRPAEIKDGSIALMRHLQSEVKSLETEFQTRHEDQRVLIEKICNLKKRLESDFEFEYEIHAKLNFDTDLPPCMSPATSEMISFITPTRRQAVGPKTSSPKDTQPSTSSSSRTTTPMSKRAMTPSSIASSTPSSAKKVLTRRNQFL”: the “soluble on expression in E. coli” value is “not soluble”.
